This note sets out measurements from publication PMC11754801, “The molecular basis of Human FN3K mediated phosphorylation of glycated substrates” (Nature Communications, 2025).

In series [1] the target is Full-length (FL) wild-type human (Hs) FN3K, purified from insect cells (human) (UniProt Q9H479). Briefly: SEC; preparative gel filtration during purification from Sf9 cells; HiLoad 16/60 Superdex 75; 10 mM HEPES pH 7.5, 200 mM NaCl, 0.5 mM TCEP; monomeric and dimeric peaks.
Series [2] deals with the molecule itself. Briefly: crystal structure; HsFN3KΔ crystals, space group P212121, two molecules in the asymmetric unit; apo and soaked with nucleotides and DMF.

A word on the stoichiometry N: it is the number of molecules, sites or subunits per partner or assembly. In turn, “Full-length (FL) wild-type human (Hs) FN3K, purified from insect cells (from UniProt Q9H479 1-309) (enzyme)” came in with a stoichiometry N in series [1] of 2.

B1: HsFN3KΔ (human FN3K with internal loop truncation: amino acids 117-138 replaced with a GSS linker) (enzyme)
chain: MEQLLRAELRTATLRAFGGPGAGCISEGRAYDTDAGPVFVKVNRRTQARQMFEGEVASLEALRSTGLVRVPRPMKVIDLPGGGAAFVMEHLKMKSLSSQASKLGEQMADLHLYNQKGSSYVDKFGFHTVTCCGFIPQVNEWQDDWPTFFARHRLQAQLDLIEKDYADREARELWSRLQVKIPDLFCGLEIVPALLHGDLWSGNVAEDDVGPIIYDPASFYGHSEFELAIALMFGGFPRSFFTAYHRKIPKAPGFDQRLLLYQLFNYLNHWNHFGREYRSPSLGTMRRLLK
modifications: intermolecular disulfide between Cys24 of each protomer
notes: human FN3K, Gene ID 64122, residues before the truncated loop (117-138); linker that replaces amino acids 117-138; human FN3K, Gene ID 64122, residues after the truncated loop (117-138); Two molecules in the asymmetric unit, domain-swapped dimer; also called apo-HsFN3K; source: E. coli Rosetta 2 (DE3), purified (Ni-NTA, cation exchange, TEV cleavage, SEC); not shown: His6, N-terminal, cleaved
Take B1: in series [2], the binding result is “binds”.
